Source: patent US20140193401A1 (published 2014)

Columns and labels:
Test in all cases: SPR (BIAcore 3000), mAb 1B7 immobilised on CM5 chip, toxin injected
PTx-S1-220 Y148A = target: T1, PTx-S1-220 Y148A (Bordetella pertussis, UniProt P04977 35-254)
T1 chain: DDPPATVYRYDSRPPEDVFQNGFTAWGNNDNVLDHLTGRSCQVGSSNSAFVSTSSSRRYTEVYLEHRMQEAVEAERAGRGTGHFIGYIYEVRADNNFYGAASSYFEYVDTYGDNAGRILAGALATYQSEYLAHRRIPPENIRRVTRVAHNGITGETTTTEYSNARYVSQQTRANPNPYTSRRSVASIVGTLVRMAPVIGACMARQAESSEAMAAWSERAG

PTx-S1-220 R39A = target: T2, PTx-S1-220 R39A (Bordetella pertussis, UniProt P04977 35-254)
T2 chain: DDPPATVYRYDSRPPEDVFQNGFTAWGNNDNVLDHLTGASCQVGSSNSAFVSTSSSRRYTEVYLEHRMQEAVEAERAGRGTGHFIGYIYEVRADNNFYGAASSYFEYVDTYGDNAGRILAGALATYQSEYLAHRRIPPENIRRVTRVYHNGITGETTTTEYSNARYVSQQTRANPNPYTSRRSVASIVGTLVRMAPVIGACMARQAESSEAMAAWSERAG

PTx-S1-220 R146A = target: T3, PTx-S1-220 R146A (Bordetella pertussis, UniProt P04977 35-254)
T3 chain: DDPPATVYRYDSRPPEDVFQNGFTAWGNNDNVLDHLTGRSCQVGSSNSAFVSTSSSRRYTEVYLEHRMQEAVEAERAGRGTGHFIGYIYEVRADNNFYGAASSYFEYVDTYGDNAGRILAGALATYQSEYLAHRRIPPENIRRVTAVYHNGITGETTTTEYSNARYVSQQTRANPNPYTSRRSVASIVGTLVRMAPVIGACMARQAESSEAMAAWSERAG

PTx-S1-220 T81A = target: T4, PTx-S1-220 T81A (Bordetella pertussis, UniProt P04977 35-254)
T4 chain: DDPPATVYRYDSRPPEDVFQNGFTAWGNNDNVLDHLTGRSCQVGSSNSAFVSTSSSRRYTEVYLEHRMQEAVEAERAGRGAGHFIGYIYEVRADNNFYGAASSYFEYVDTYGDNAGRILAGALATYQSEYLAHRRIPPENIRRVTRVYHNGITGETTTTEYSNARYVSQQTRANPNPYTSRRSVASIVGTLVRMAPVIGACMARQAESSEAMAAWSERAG

PTx-S1-220 T153A = target: T5, PTx-S1-220 T153A (Bordetella pertussis, UniProt P04977 35-254)
T5 chain: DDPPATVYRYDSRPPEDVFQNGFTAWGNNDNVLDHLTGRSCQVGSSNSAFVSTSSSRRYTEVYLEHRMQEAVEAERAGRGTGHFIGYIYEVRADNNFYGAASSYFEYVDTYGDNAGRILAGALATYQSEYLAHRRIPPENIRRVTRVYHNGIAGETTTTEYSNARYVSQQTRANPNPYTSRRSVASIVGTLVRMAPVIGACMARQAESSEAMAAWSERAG

PTx-S1-220 T159A = target: T6, PTx-S1-220 T159A (Bordetella pertussis, UniProt P04977 35-254)
T6 chain: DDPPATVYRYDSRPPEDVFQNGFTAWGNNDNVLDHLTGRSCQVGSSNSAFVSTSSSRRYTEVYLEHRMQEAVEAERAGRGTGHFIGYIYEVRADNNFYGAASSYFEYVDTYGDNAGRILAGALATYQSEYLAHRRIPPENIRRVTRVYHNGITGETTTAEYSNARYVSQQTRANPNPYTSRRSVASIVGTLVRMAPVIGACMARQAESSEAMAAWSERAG

PTx-S1-220 R79A = target: T7, PTx-S1-220 R79A (Bordetella pertussis, UniProt P04977 35-254)
T7 chain: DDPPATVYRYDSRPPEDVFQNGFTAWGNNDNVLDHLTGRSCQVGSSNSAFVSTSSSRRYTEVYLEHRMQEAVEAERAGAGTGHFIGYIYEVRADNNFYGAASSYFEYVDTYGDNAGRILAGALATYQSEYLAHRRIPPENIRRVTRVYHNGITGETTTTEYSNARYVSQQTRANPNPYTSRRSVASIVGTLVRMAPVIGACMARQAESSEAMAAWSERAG

[1] = target: T8, PTx-S1-220 (truncated PTx-S1, residues 1-220, strain Tohama I, variant B) (Bordetella pertussis, UniProt P04977 35-254)
T8 construct: also called WT PTx-S1-220; PTx-S1B
T8 sequence: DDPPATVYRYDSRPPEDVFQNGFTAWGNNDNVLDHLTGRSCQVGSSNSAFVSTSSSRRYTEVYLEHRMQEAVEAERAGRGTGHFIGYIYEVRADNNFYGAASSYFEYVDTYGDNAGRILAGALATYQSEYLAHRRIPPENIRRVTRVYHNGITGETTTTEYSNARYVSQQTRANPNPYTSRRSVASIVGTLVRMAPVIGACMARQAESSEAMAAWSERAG

PTx-S1-220 E155A = target: T9, PTx-S1-220 E155A (Bordetella pertussis, UniProt P04977 35-254)
T9 chain: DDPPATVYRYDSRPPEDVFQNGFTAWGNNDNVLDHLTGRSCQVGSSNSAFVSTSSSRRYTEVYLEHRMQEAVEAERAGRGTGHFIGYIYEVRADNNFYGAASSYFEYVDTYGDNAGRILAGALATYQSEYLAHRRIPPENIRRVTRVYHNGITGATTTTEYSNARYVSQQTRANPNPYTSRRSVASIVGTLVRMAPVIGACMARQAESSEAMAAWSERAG

B1: murine monoclonal antibody 1B7 (antibody, V domains shown)
VH: EVQLQQSGSELVRPGASVKLSCKASGYKFTSYWMHWVKQRPGQGLEWIGNIFPGSGSTNYDEKFNSKATLTVDTSSNTAYMQLSSLTSEDSAVYYCTRWLSGAYFDYWGQGTTLTVSS
VL: DIQMTQSPALMSASPGEKVTMTCSASSSVSFMYWYQQKPRSSPKPWIYLTSNLPSGVPARFSGSGSGTSYSLTISSMEAEDAATYYCQQWSSHPPTFGSGTKLEIKR
notes: also called mAb 1B7; 1B7 mAb
- koff (PTx-S1-220 Y148A): 0.029 s⁻¹
- koff (PTx-S1-220 R39A): 0.003 s⁻¹
- koff (PTx-S1-220 R146A): 0.0015 s⁻¹
- koff (PTx-S1-220 T81A): 0.0017 s⁻¹
- koff (PTx-S1-220 T153A): 0.002 s⁻¹
- koff (PTx-S1-220 T159A): 0.0014 s⁻¹
- koff (PTx-S1-220 R79A): 0.025 s⁻¹
- koff [1]: 0.0014 s⁻¹
- koff (PTx-S1-220 E155A): 0.0011 s⁻¹
